These are literature values, as cited in PMC8515877.

This data set addresses GnRH receptor (Mus musculus) (UniProt Q01776).
Chain of UniProt Q01776 (Q01776 whole entry): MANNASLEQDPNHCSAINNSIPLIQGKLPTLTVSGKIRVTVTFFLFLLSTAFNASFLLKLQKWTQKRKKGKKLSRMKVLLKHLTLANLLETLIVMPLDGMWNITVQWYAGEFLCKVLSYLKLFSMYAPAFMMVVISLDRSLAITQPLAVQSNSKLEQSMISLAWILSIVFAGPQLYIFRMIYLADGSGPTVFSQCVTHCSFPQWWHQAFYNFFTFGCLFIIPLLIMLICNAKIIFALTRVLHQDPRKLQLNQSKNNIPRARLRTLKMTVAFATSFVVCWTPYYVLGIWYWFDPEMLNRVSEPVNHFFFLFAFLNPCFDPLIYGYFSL

Chain of GnRH (P13562 whole entry, looked up): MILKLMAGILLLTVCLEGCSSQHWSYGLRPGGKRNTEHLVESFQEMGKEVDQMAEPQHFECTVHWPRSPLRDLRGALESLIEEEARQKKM

By Kd is commonly meant the equilibrium constant for the complex coming apart. As for GnRH (from UniProt P13562), the Kd is 1.4 nM.
